Patent US20080268015A1 (AFFINERGY, published 2008)
Primed or numbered codes have the meaning given here. Where no end group is shown, it is not given here. [ ]: non-standard residue; d: D form. PEG10′ = non-peptide PEG10 spacer

What follows are binders tested against BMP2 (Bone Morphogenetic Protein 2) (UniProt P12643 283-396) (assay: ELISA: composition (10 uM) pre-bound to DBM, serial dilutions of BMP-2, detected with anti-BMP-2 antibody).
BMP2 (Bone Morphogenetic Protein 2), sequence (P12643 283-396 limits assumed): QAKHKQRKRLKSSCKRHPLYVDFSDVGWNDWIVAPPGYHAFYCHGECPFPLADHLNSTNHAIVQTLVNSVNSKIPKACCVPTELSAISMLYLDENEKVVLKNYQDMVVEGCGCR
Protocol: A binding assay was performed using ELISA; and the resultant absorbance observed across the concentration range of pharmaceutically active agent yielded a binding curve and rough dissociation constant of the composition which were used to calculate an EC50. Appropriate controls, including absence of the composition, were included in the assay.
As a specific example, DBM was placed in a microtiter plate at a concentration of 3 mg equivalents per well, and then the wells and DBM were blocked with buffer containing 1% BSA for 1 hour at room temperature. The buffer containing 1% BSA was then aspirated from each well, and added to each of the wells was 100 μl of buffer containing 10 μM of the respective composition embodiments. The microtiter plates were incubated for 1 hour at room temperature on a plate shaker. The DBM was then allowed to settle, and the buffer was then aspirated from the wells. The DBM was washed three times with buffer-T, and then serial dilutions of BMP-2 were added to the wells in 100 μl of buffer. The microtiter plates were then incubated for 1 hour at room temperature on a plate shaker. The DBM, having composition bound thereto, was then allowed to settle, and then buffer was aspirated from the wells. The DBM-composition combination was washed three times with buffer-T. Commercial murine anti-BMP-2 antibody was diluted 1:1000 in buffer containing 1% BSA, and 100 μl was added per well. The plates were incubated for 30 minutes at room temperature on a plate shaker, and then the wash step was repeated. Commercial anti-mouse antibody labeled with alkaline phosphatase was diluted 1:1000 in buffer containing 1% BSA, and 100 μl was added per well. The plates were incubated for 30 minutes at room temperature on a plate shaker, and then the wash step was repeated. Added to each well was 200 μl of substrate pNPP, and the plates were incubated at room temperature on a plate shaker to develop the assay. 100 μl of solution was removed from each well and added to a respective well of a new microtiter plate which was then read on a spectrophotometer and the absorbance was recorded at 405 nm. An estimate of the relative affinity, binding specificity, EC50 of the composition for pharmaceutically active agent can be made by determining the concentration of peptide that provides one-half the maximal signal in the assay.
With SWWGFWNGSAAPVWSRGSSGAGALGFPLKGEVVEGWAGSSGK (also: biotin linked to C-terminal GSSGK linker, site not given here) the EC50 was < 10 nM. For SFGSWWWGSGAASSRG[PEG10′]AGAWEAFSSLSGSRVGSSGK (also: C-terminal amino linker biotinylated), the EC50 was < 10 nM. For SWWGFWNGSAAPVWSRGSSESAGAWEAFSSLSGSRVGSSGK (also: biotin linked to C-terminal GSSGK linker, site not given here), the EC50 was < 10 nM. For SWWGFWNGSAAPVWSRGSSGAGAWEAFSSLSGSRVGSSGK (also: biotin linked to C-terminal GSSGK linker, site not given here), the EC50 was < 10 nM. SFGSWWWGSGAASSRG[PEG10′]GGGAWEAFSSLSGSRVGSSGK (also: C-terminal amino linker biotinylated) was tested, and the EC50 was < 10 nM. In the case of SFGSWWWGSGAASSRGSSGGGALGFPLKGEVVEGWAGSSGK (also: biotin linked to C-terminal GSSGK linker, site not given here), the EC50 is reported as < 10 nM.
